Experiment [1] addresses Marchantia polymorpha MpDELLA (yeast prey fusion). The experiment can be described thus: yeast 2-hybrid. The settings on record: parent: est. 180; read off a plot.
For experiment [2], the target named is A. thaliana GAI (yeast prey fusion) (UniProt Q9LQT8). The experiment can be described thus: yeast 2-hybrid. Particulars: parent: est. 37; read off a plot.
In experiment [3] the target is T1, His-tagged GAI (Arabidopsis thaliana, UniProt Q9LQT8 1-533).
T1 construct: GAI of A. thaliana; also called His-GAI; His-tagged AtGAI; source: E. coli BL21, purified (Ni-NTA agarose)
T1 sequence (looked up): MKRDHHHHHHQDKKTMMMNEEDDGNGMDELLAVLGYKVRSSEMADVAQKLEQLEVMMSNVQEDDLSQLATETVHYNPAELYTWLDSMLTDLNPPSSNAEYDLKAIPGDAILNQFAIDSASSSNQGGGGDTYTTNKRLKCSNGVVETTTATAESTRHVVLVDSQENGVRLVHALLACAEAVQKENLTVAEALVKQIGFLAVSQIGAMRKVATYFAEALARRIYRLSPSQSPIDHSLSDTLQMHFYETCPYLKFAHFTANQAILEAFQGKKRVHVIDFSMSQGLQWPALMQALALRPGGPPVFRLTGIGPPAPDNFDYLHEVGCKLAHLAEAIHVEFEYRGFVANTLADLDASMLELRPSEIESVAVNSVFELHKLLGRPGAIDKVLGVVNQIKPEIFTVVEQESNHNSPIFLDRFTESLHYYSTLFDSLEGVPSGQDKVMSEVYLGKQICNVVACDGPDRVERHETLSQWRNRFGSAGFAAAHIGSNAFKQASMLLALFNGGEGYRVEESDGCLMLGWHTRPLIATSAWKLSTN
The experiment can be described thus: pull-down; 5 μg His-GAI held on Ni-NTA agarose, 5 μg MBP-SLY1/sly1 added with an equal amount of GST-GID1C and 0.1 mM GA3, 1 h at 4 °C, immunoblot with anti-His, anti-MBP and anti-GST. Particulars: both partners purified.

The target of experiment [4] is T1, His-tagged GAI. The experiment in a line: pull-down; 5 μg His-GAI/gai held on Ni-NTA agarose, 5 μg MBP-SLY1/sly1 added, 1 h at 4 °C, five washes, immunoblot with anti-His and anti-MBP. The settings on record: both partners purified. In general terms: In western blotting, separated proteins are transferred to a membrane and probed.

Positions count from the first letter of the chain named. Names and notes keep the numbering of the source.

Take “Marchantia polymorpha MpSLY1 (yeast bait fusion) H147K”: the response (β-galactosidase units) in experiment [1] is 130. “Marchantia polymorpha MpSLY1 (yeast bait fusion) R118P”: the response (β-galactosidase units) in experiment [1] was 50.

Regarding “Marchantia polymorpha MpSLY1 (yeast bait fusion) S149T”, the response (β-galactosidase units) in experiment [1] was found to be 100. Take “Marchantia polymorpha MpSLY1 (yeast bait fusion) Y108F”: in experiment [2], the response (β-galactosidase units) was 17.

B1: GST-GID1C (receptor, Arabidopsis thaliana, UniProt Q940G6 1-344, looked up)
chain: MAGSEEVNLIESKTVVPLNTWVLISNFKLAYNLLRRPDGTFNRHLAEFLDRKVPANANPVNGVFSFDVIIDRQTNLLSRVYRPADAGTSPSITDLQNPVDGEIVPVIVFFHGGSFAHSSANSAIYDTLCRRLVGLCGAVVVSVNYRRAPENRYPCAYDDGWAVLKWVNSSSWLRSKKDSKVRIFLAGDSSGGNIVHNVAVRAVESRIDVLGNILLNPMFGGTERTESEKRLDGKYFVTVRDRDWYWRAFLPEGEDREHPACSPFGPRSKSLEGLSFPKSLVVVAGLDLIQDWQLKYAEGLKKAGQEVKLLYLEQATIGFYLLPNNNHFHTVMDEIAAFVNAECQ
notes: GID1C, gibberellin receptor of A. thaliana; Used together with 0.1 mM GA3; also called GST-AtGID1C; source: E. coli BL21, purified (glutathione beads)
With B1, in the experiment with His-tagged GAI [3], the binding result is “binds”.

B2: MBP-tagged AtSLY1 (natural protein, Arabidopsis thaliana, UniProt Q9STX3 1-151, looked up)
chain: MKRSTTDSDLAGDAHNETNKKMKSTEEEEIGFSNLDENLVYEVLKHVDAKTLAMSSCVSKIWHKTAQDERLWELICTRHWTNIGCGQNQLRSVVLALGGFRRLHSLYLWPLSKPNPRARFGKDELKLTLSLLSIRYYEKMSFTKRPLPESK
notes: AtSLY1 of A. thaliana; also called MBP-SLY1; source: E. coli BL21, purified (amylose resin)
Regarding B2, the binding result with His-tagged GAI [4] is “binds”.

B3: MBP-sly1^gar2-1 (E138K) (natural protein, Arabidopsis thaliana, UniProt Q9STX3 1-151, looked up)
chain: B2 chain with E138K
notes: AtSLY1 of A. thaliana with E138K; cloned into pMAL-c2X; also called MBP-tagged Atsly1^gar2-1; source: E. coli BL21, purified (amylose resin)
For the molecule B3, the binding result in the experiment with His-tagged GAI [4] is listed as “binds”.

B4: MBP-tagged Atsly1^H104Y (natural protein, Arabidopsis thaliana, UniProt Q9STX3 1-151, looked up)
chain: B2 chain with H104Y
notes: AtSLY1 of A. thaliana with H104Y; cloned into pMAL-c2X; source: E. coli BL21, purified (amylose resin)
For B4, the binding result with His-tagged GAI [4] was “binds”.

Values taken from PMC10724065, “Evolution of a plant growth-regulatory protein interaction specificity” (Nature Plants, 2023).
